Like-named read-outs stand apart in the source and are kept apart here.
B1: AB-64.1.4 (antibody, V domains shown)
VH: QVQLVQSGAEVKKPGASVKISCKASGYTFTDYNLHWVRQAPGQGLEWIGFIYPSNGITGYAQKFQGRATLTVDTSTSTAYMELSSLRSEDTAVYYCARSDVDYFDYWGQGTLLTVSS
VL: DIVLTQSPDSLAVSLGERATINCRASQSVSTSTYSYMHWYQQKPGQPPKLLIKYASNLESGVPDRFSGSGSGTDFTLTISSLQAEDVAVYYCQHSWEIPLTFGQGTKLEIK
notes: Variant of AB-64.1
B2: AB-64.1.1 (antibody, V domains shown)
VH: QVQLVQSGAEVKKPGASVKISCKASGYTFTDYNLHWVRQAPGQGLEWIGFIYPSNQITGYAQKFQGRATLTVDNSTSTAYMELSSLRSEDTAVYYCARSDVDYFDYWGQGTLLTVSS
VL: DIVLTQSPDSLAVSLGERATINCRASQSVSTSTYSYMHWYQQKPGQPPKLLIKYASNLESGVPDRFSGSGSGTDFTLTISSLQAEDVAVYYCQHSWEIPLTFGQGTKLEIK
notes: Variant of AB-64.1
B3: AB-64.1.3 (antibody, V domains shown)
VH: QVQLVQSGAEVKKPGASVKISCKASGYTFTDYNLHWVRQAPGQGLEWIGFIYPSNVITGYAQKFQGRATLTVDNSTSTAYMELSSLRSEDTAVYYCARSDVDYFDYWGQGTLLTVSS
VL: DIVLTQSPDSLAVSLGERATINCRASQSVSTSTYSYMHWYQQKPGQPPKLLIKYASNLESGVPDRFSGSGSGTDFTLTISSLQAEDVAVYYCQHSWEIPLTFGQGTKLEIK
notes: Variant of AB-64.1
B4: AB-64.1.5 (antibody, V domains shown)
VH: QVQLVQSGAEVKKPGASVKISCKASGYTFTDYNLHWVRQAPGQGLEWIGFIYPSNGITGYAQKFQGRATLTVDQSTSTAYMELSSLRSEDTAVYYCARSDVDYFDYWGQGTLLTVSS
VL: DIVLTQSPDSLAVSLGERATINCRASQSVSTSTYSYMHWYQQKPGQPPKLLIKYASNLESGVPDRFSGSGSGTDFTLTISSLQAEDVAVYYCQHSWEIPLTFGQGTKLEIK
notes: Variant of AB-64.1
B5: AB-64.1.6 (antibody, V domains shown)
VH: QVQLVQSGAEVKKPGASVKISCKASGYTFTDYNLHWVRQAPGQGLEWIGFIYPSNGITGYAQKFQGRATLTVDNSASTAYMELSSLRSEDTAVYYCARSDVDYFDYWGQGTLLTVSS
VL: DIVLTQSPDSLAVSLGERATINCRASQSVSTSTYSYMHWYQQKPGQPPKLLIKYASNLESGVPDRFSGSGSGTDFTLTISSLQAEDVAVYYCQHSWEIPLTFGQGTKLEIK
notes: Variant of AB-64.1
B6: AB-64.1.7 (antibody, V domains shown)
VH: QVQLVQSGAEVKKPGASVKISCKASGYTFTDYNLHWVRQAPGQGLEWIGFIYPSNGITGYAQKFQGRATLTVDNPTSTAYMELSSLRSEDTAVYYCARSDVDYFDYWGQGTLLTVSS
VL: DIVLTQSPDSLAVSLGERATINCRASQSVSTSTYSYMHWYQQKPGQPPKLLIKYASNLESGVPDRFSGSGSGTDFTLTISSLQAEDVAVYYCQHSWEIPLTFGQGTKLEIK
notes: Variant of AB-64.1
B7: AB-64.1.9 (antibody, V domains shown)
VH: QVQLVQSGAEVKKPGASVKISCKASGYTFTDYNLHWVRQAPGQGLEWIGFIYPSNQITGYAQKFQGRATLTVDNPTSTAYMELSSLRSEDTAVYYCARSDVDYFDYWGQGTLLTVSS
VL: DIVLTQSPDSLAVSLGERATINCRASQSVSTSTYSYMHWYQQKPGQPPKLLIKYASNLESGVPDRFSGSGSGTDFTLTISSLQAEDVAVYYCQHSWEIPLTFGQGTKLEIK
notes: Variant of AB-64.1
B8: AB-64.1.10 (antibody, V domains shown)
VH: QVQLVQSGAEVKKPGASVKISCKASGYTFTDYNLHWVRQAPGQGLEWIGFIYPSNRITGYAQKFQGRATLTVDTSTSTAYMELSSLRSEDTAVYYCARSDVDYFDYWGQGTLLTVSS
VL: DIVLTQSPDSLAVSLGERATINCRASQSVSTSTYSYMHWYQQKPGQPPKLLIKYASNLESGVPDRFSGSGSGTDFTLTISSLQAEDVAVYYCQHSWEIPLTFGQGTKLEIK
notes: Variant of AB-64.1
B9: AB-64.1.11 (antibody, V domains shown)
VH: QVQLVQSGAEVKKPGASVKISCKASGYTFTDYNLHWVRQAPGQGLEWIGFIYPSNRITGYAQKFQGRATLTVDQSTSTAYMELSSLRSEDTAVYYCARSDVDYFDYWGQGTLLTVSS
VL: DIVLTQSPDSLAVSLGERATINCRASQSVSTSTYSYMHWYQQKPGQPPKLLIKYASNLESGVPDRFSGSGSGTDFTLTISSLQAEDVAVYYCQHSWEIPLTFGQGTKLEIK
notes: Variant of AB-64.1
B10: AB-64.1.12 (antibody, V domains shown)
VH: QVQLVQSGAEVKKPGASVKISCKASGYTFTDYNLHWVRQAPGQGLEWIGFIYPSNRITGYAQKFQGRATLTVDNSASTAYMELSSLRSEDTAVYYCARSDVDYFDYWGQGTLLTVSS
VL: DIVLTQSPDSLAVSLGERATINCRASQSVSTSTYSYMHWYQQKPGQPPKLLIKYASNLESGVPDRFSGSGSGTDFTLTISSLQAEDVAVYYCQHSWEIPLTFGQGTKLEIK
notes: Variant of AB-64.1
B11: AB-64.1.13 (antibody, V domains shown)
VH: QVQLVQSGAEVKKPGASVKISCKASGYTFTDYNLHWVRQAPGQGLEWIGFIYPSNVITGYAQKFQGRATLTVDTSTSTAYMELSSLRSEDTAVYYCARSDVDYFDYWGQGTLLTVSS
VL: DIVLTQSPDSLAVSLGERATINCRASQSVSTSTYSYMHWYQQKPGQPPKLLIKYASNLESGVPDRFSGSGSGTDFTLTISSLQAEDVAVYYCQHSWEIPLTFGQGTKLEIK
notes: Variant of AB-64.1
B12: AB-64.1.14 (antibody, V domains shown)
VH: QVQLVQSGAEVKKPGASVKISCKASGYTFTDYNLHWVRQAPGQGLEWIGFIYPSNVITGYAQKFQGRATLTVDQSTSTAYMELSSLRSEDTAVYYCARSDVDYFDYWGQGTLLTVSS
VL: DIVLTQSPDSLAVSLGERATINCRASQSVSTSTYSYMHWYQQKPGQPPKLLIKYASNLESGVPDRFSGSGSGTDFTLTISSLQAEDVAVYYCQHSWEIPLTFGQGTKLEIK
notes: Variant of AB-64.1
B13: AB-64.1.15 (antibody, V domains shown)
VH: QVQLVQSGAEVKKPGASVKISCKASGYTFTDYNLHWVRQAPGQGLEWIGFIYPSNVITGYAQKFQGRATLTVDNSASTAYMELSSLRSEDTAVYYCARSDVDYFDYWGQGTLLTVSS
VL: DIVLTQSPDSLAVSLGERATINCRASQSVSTSTYSYMHWYQQKPGQPPKLLIKYASNLESGVPDRFSGSGSGTDFTLTISSLQAEDVAVYYCQHSWEIPLTFGQGTKLEIK
notes: Variant of AB-64.1
B14: Chimeric Ab #2 (antibody, V domains shown)
VH: EVQLQQSGPELVKPGASVKISCKASGYTFTDYNLHWVKLSHGKSLEWIGFIYPSNGITGYNQKFKNKATLTVDTSSSTAYMELRSLTSEDSAVYYCARSTVDYFDYWGQGTTLTVSS
VL: DIVLTQSPASLAVSLGQRATMSCRASQSVSTSTYSYMHWYQQKPGQPPKLLIKYASNLESGVPARFSGSGSGTDFTLNIHPVEEEDTATYYCQHSWEIPLTFGAGTKLELK
notes: Chimeric Ab with a VH-FR3 mutation that removes the predicted N-glycosylation site

Key:
human CD33 [1] = biological target: T1, human CD33 (human, UniProt P20138 18-259, limits assumed); assay: BLI (ForteBio), Fab 100 nM on immobilized CD33
T1 construct: Human CD33 immobilized on the BLI sensor tip or the BIAcore C1 chip; also called Siglec-3
Experimental: The affinities (KD) of the humanized antibodies for human CD33 were measured for each antibody by BioLayer Interferometry in a ForteBio assay according to standard techniques (Estep et al. (2013) MAbs 5(2): 270-8). […] The assay was carried out at room temperature.
The affinity parameters of two of the antibodies, 64.1.2 and 64.1.8, were measured in a separate experiment by BIAcore, where they were directly compared to the parental antibody, AB-64.1, the parental humanized antibody, AB-H64, and the Chimeric Ab.

[2] = biological target: T2, human CD33 on primary human monocyte-derived dendritic cells (human, UniProt P20138 18-364); assay: cell-based or functional assay
[3] = biological target: T2, human CD33 on primary human …; assay: cell-based or functional assay; remark: listed apart in the source
[4] = biological target: T2, human CD33 on primary human …; assay: cell-based or functional assay; remark: listed apart in the source
human CD33 [5] = biological target: T1, human CD33; assay: SPR (BIAcore), Fab over CD33 on C1 chip
Experimental: The affinity parameters for 10 of the 88 humanized antibodies (AB-H1, AB-H3, AB-H6, AB-H11, AB-H22, AB-H24, AB-H26, AB-H63, AB-H64, and AB-H71) were measured in a separate experiment by a more sensitive technique, surface plasmon resonance (BIAcore), and compared to Chimeric Ab and Chimeric Ab #2. BIAcore measurements were performed as follows: human CD33 was immobilized on the surface of a C1 chip, and Fabs were injected for 300 s to monitor association, followed by a 900 s flow in running buffer to monitor dissociation. The Fabs were measured at 5 concentrations: a high concentration of 27 nM and 3-fold serial dilutions.

T1 sequence (P20138 18-259 limits assumed): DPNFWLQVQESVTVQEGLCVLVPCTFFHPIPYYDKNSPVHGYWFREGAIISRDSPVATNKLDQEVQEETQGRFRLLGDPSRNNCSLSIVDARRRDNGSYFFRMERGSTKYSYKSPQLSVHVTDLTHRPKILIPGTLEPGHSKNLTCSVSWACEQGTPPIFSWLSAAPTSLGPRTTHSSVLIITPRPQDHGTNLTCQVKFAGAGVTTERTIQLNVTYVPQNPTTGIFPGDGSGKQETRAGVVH
T2 sequence (P20138 18-364): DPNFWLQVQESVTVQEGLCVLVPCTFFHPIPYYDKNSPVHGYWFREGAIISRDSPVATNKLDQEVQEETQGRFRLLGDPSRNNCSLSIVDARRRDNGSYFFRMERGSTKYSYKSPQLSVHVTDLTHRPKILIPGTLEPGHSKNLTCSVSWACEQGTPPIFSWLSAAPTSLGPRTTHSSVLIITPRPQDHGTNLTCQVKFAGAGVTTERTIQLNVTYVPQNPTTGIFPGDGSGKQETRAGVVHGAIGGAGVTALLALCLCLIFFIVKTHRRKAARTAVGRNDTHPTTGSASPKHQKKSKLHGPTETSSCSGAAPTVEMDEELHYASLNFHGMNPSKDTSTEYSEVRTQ

Binder | Kd (human CD33 [1]) [nM] | Receptor downregulation (% remaining at 0.16 µg/mL antibody) [2] [%] | also measured
B1 | 0.639 | 38 | 
B2 | 0.429 | 37 | 
B3 | 0.647 | 38.5 | 
B4 | 0.697 | 37.3 | 
B5 | 0.836 | 37 | 
B6 | 0.391 | 35.9 | 
B7 | 1.06 | 37.4 | 
B8 | 1.45 | 39.8 | 
B9 | 1.15 | 38.6 | 
B10 | 0.922 | 38.5 | 
B11 | 1.45 | 35.9 | 
B12 | 0.743 | 38.4 | 
B13 | 0.412 | 38.9 | 
B14 |  |  | Maximal Downregulation (% CD33 remaining) [3]: 23.2%; Receptor downregulation (EC50) [3]: 0.119 nM; Maximal Downregulation (% CD33 remaining) [4]: 23.2%; Receptor downregulation (EC50) [4]: 0.119 nM; Fold Change to Chimeric Ab (human CD33 [5]): 0.56 fold; Kd (human CD33 [5]): 2.89 nM; koff (human CD33 [5]): 0.00286 s⁻¹; kon (human CD33 [5]): 991000 M⁻¹ s⁻¹
